Measured values: the supplement of paper PMC9112550, “Optimization of the antimicrobial peptide Bac7 by deep mutational scanning” (BMC Biology, 2022)

Each sequence was assayed on Escherichia coli TOP10 (assay: shrunken log2 fold change of peptide-encoding DNA abundance (4.5 h post-induction vs induction); higher = less antimicrobial activity (less host growth inhibition)). Conditions: time post-induction: 4.5 h; library: site-saturation at positions 5, 18, 19, 20.
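Note: peptides expressed intracellularly from a pBAD plasmid library in pooled LB shake-flask culture, induced with 0.3% L-arabinose, DNA abundance read by NGS, three biological replicates, DESeq2 with apeglm shrinkage.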

Row | Sequence | shrunken log2 fold change
1 | RRIRGRPPRLPRPRPRPCMYPRP | 0.013
2 | RRIRTRPPRLPRPRPRPPLQPRP | 0.369
3 | RRIRYRPPRLPRPRPRPVQDPRP | -0.00208
4 | RRIRVRPPRLPRPRPRPARAPRP | 0.566
5 | RRIRCRPPRLPRPRPRPNHCPRP | -0.551
6 | RRIRIRPPRLPRPRPRPYMGPRP | -0.579
7 | RRIRVRPPRLPRPRPRPCRNPRP | -0.0211
8 | RRIRERPPRLPRPRPRPMSPPRP | -0.0381
9 | RRIRGRPPRLPRPRPRPTSCPRP | 0.401
10 | RRIRARPPRLPRPRPRPVQPPRP | 0.392
11 | RRIRGRPPRLPRPRPRPRRPPRP | 0.756
12 | RRIRNRPPRLPRPRPRPLGQPRP | 0.0394
13 | RRIRCRPPRLPRPRPRPTIGPRP | -0.0746
14 | RRIRTRPPRLPRPRPRPHMWPRP | -0.302
15 | RRIRERPPRLPRPRPRPFYHPRP | -1.01
16 | RRIRLRPPRLPRPRPRPSPYPRP | -0.674
17 | RRIRVRPPRLPRPRPRPDYSPRP | -0.107
18 | RRIRYRPPRLPRPRPRPRCDPRP | -0.207
19 | RRIRFRPPRLPRPRPRPKTDPRP | -0.0282
20 | RRIRSRPPRLPRPRPRPLISPRP | -0.173
21 | RRIRARPPRLPRPRPRPKWVPRP | 0.222
22 | RRIRGRPPRLPRPRPRPVEFPRP | 0.596
23 | RRIRFRPPRLPRPRPRPLYDPRP | -0.358
24 | RRIRKRPPRLPRPRPRPYIHPRP | -0.227
25 | RRIRVRPPRLPRPRPRPVQKPRP | 0.0709

Row | Sequence | shrunken log2 fold change
26 | RRIRHRPPRLPRPRPRPAPEPRP | 0.0106
27 | RRIRCRPPRLPRPRPRPQNIPRP | -0.237
28 | RRIRMRPPRLPRPRPRPVIMPRP | -0.101
29 | RRIRHRPPRLPRPRPRPGCNPRP | -0.175
30 | RRIRSRPPRLPRPRPRPFMHPRP | -0.321
31 | RRIRKRPPRLPRPRPRPKTFPRP | -0.124
32 | RRIRRRPPRLPRPRPRPAKMPRP | 0.113
33 | RRIRYRPPRLPRPRPRPCFHPRP | -1.42
34 | RRIRSRPPRLPRPRPRPEPWPRP | 0.548
35 | RRIRHRPPRLPRPRPRPINIPRP | -1.01
36 | RRIRARPPRLPRPRPRPYLRPRP | -0.228
37 | RRIRHRPPRLPRPRPRPHICPRP | -0.259
38 | RRIRERPPRLPRPRPRPNFVPRP | 0.0109
39 | RRIRTRPPRLPRPRPRPQVPPRP | 0.101
40 | RRIRTRPPRLPRPRPRPSHAPRP | -0.345
41 | RRIRCRPPRLPRPRPRPTSRPRP | -0.0338
42 | RRIRGRPPRLPRPRPRPWKWPRP | 0.0325
43 | RRIRIRPPRLPRPRPRPDNEPRP | -0.117
44 | RRIRNRPPRLPRPRPRPRIEPRP | -0.117
45 | RRIRCRPPRLPRPRPRPYFMPRP | -0.91
46 | RRIRHRPPRLPRPRPRPNRKPRP | 0.0857
47 | RRIRHRPPRLPRPRPRPAHHPRP | 0.178
48 | RRIRQRPPRLPRPRPRPINCPRP | -0.384
49 | RRIRMRPPRLPRPRPRPECAPRP | 3.56
50 | RRIRERPPRLPRPRPRPKMYPRP | -0.898

Row | Sequence | shrunken log2 fold change
51 | RRIRKRPPRLPRPRPRPAECPRP | 0.33
52 | RRIRIRPPRLPRPRPRPPPIPRP | 0.141
53 | RRIRHRPPRLPRPRPRPLLIPRP | -0.516
54 | RRIRARPPRLPRPRPRPDREPRP | -0.0167
55 | RRIRDRPPRLPRPRPRPRSCPRP | 0.2
56 | RRIRYRPPRLPRPRPRPEQYPRP | -0.0207
57 | RRIRPRPPRLPRPRPRPCHRPRP | -0.181
58 | RRIRARPPRLPRPRPRPPQWPRP | 0.814
59 | RRIRMRPPRLPRPRPRPNTVPRP | -0.162
60 | RRIRTRPPRLPRPRPRPWRYPRP | 0.108
61 | RRIRKRPPRLPRPRPRPLKPPRP | 0.238
62 | RRIRWRPPRLPRPRPRPTYQPRP | -0.325
63 | RRIRPRPPRLPRPRPRPYYFPRP | -0.427
64 | RRIRLRPPRLPRPRPRPEHQPRP | -0.0896
65 | RRIRLRPPRLPRPRPRPMSGPRP | -0.0068
66 | RRIRDRPPRLPRPRPRPDSEPRP | -0.0121
67 | RRIRQRPPRLPRPRPRPIEPPRP | -0.0381
68 | RRIRVRPPRLPRPRPRPYPYPRP | -0.0982
69 | RRIRQRPPRLPRPRPRPCKWPRP | -0.0434
70 | RRIRPRPPRLPRPRPRPDWGPRP | 0.107
71 | RRIRNRPPRLPRPRPRPWFDPRP | -0.876
72 | RRIRFRPPRLPRPRPRPVPTPRP | 0.113
73 | RRIRTRPPRLPRPRPRPYFAPRP | -0.193
74 | RRIRPRPPRLPRPRPRPAANPRP | 0.17
75 | RRIRVRPPRLPRPRPRPAALPRP | 0.0637

Row | Sequence | shrunken log2 fold change
76 | RRIRHRPPRLPRPRPRPIKTPRP | -0.00476
77 | RRIRHRPPRLPRPRPRPPIRPRP | 0.309
78 | RRIRLRPPRLPRPRPRPHNWPRP | -0.0581
79 | RRIRCRPPRLPRPRPRPDSQPRP | -0.203
80 | RRIRHRPPRLPRPRPRPLETPRP | -0.47
81 | RRIRYRPPRLPRPRPRPELEPRP | 0.0858
82 | RRIRHRPPRLPRPRPRPECQPRP | -0.0633
83 | RRIRTRPPRLPRPRPRPQIMPRP | -0.337
84 | RRIRIRPPRLPRPRPRPHQNPRP | -0.165
85 | RRIRNRPPRLPRPRPRPYSGPRP | 0.00884
86 | RRIRQRPPRLPRPRPRPYWDPRP | -0.192
87 | RRIRSRPPRLPRPRPRPAFCPRP | 0.259
88 | RRIRDRPPRLPRPRPRPGKHPRP | -0.0728
89 | RRIRQRPPRLPRPRPRPIINPRP | -0.235
90 | RRIRQRPPRLPRPRPRPNKGPRP | -0.0896
91 | RRIRVRPPRLPRPRPRPHGPPRP | -0.156
92 | RRIRIRPPRLPRPRPRPCWWPRP | 0.082
93 | RRIRRRPPRLPRPRPRPCIRPRP | -0.135
94 | RRIRERPPRLPRPRPRPNEDPRP | -0.151
95 | RRIRLRPPRLPRPRPRPKTLPRP | -0.0582
96 | RRIRSRPPRLPRPRPRPASNPRP | -0.101
97 | RRIRFRPPRLPRPRPRPQEMPRP | 0.126
98 | RRIRMRPPRLPRPRPRPKLLPRP | 0.0392
99 | RRIRWRPPRLPRPRPRPRYVPRP | -0.147
100 | RRIRQRPPRLPRPRPRPKHCPRP | 0.0753

Row | Sequence | shrunken log2 fold change
101 | RRIRPRPPRLPRPRPRPLNTPRP | -0.482
102 | RRIRHRPPRLPRPRPRPPCNPRP | -0.221
103 | RRIRYRPPRLPRPRPRPINSPRP | -0.184
104 | RRIRHRPPRLPRPRPRPDPHPRP | 0.000754
105 | RRIRQRPPRLPRPRPRPPIPPRP | -0.0174
106 | RRIRMRPPRLPRPRPRPMREPRP | 0.279
107 | RRIRQRPPRLPRPRPRPEQGPRP | 0.0169
108 | RRIRERPPRLPRPRPRPYKAPRP | -0.123
109 | RRIRFRPPRLPRPRPRPGYWPRP | 0.0724
110 | RRIRNRPPRLPRPRPRPMVFPRP | -0.000155
111 | RRIRSRPPRLPRPRPRPVMKPRP | -0.45
112 | RRIRMRPPRLPRPRPRPLNPPRP | 0.0743
113 | RRIRLRPPRLPRPRPRPEGHPRP | -0.107
114 | RRIRMRPPRLPRPRPRPCMMPRP | -0.124
115 | RRIRKRPPRLPRPRPRPRITPRP | 0.227
116 | RRIRFRPPRLPRPRPRPFCSPRP | -0.486
117 | RRIRSRPPRLPRPRPRPHKEPRP | -0.00927
118 | RRIRGRPPRLPRPRPRPNEVPRP | 0.0747
119 | RRIRGRPPRLPRPRPRPFNMPRP | -1.07
120 | RRIRQRPPRLPRPRPRPTMTPRP | -0.0845
121 | RRIRSRPPRLPRPRPRPSDCPRP | -0.79
122 | RRIRWRPPRLPRPRPRPLMCPRP | 0.117
123 | RRIRHRPPRLPRPRPRPSGWPRP | -0.291
124 | RRIRLRPPRLPRPRPRPCLFPRP | -0.0955
125 | RRIRLRPPRLPRPRPRPFSLPRP | -0.127

Row | Sequence | shrunken log2 fold change
126 | RRIRDRPPRLPRPRPRPDNTPRP | -0.103
127 | RRIRVRPPRLPRPRPRPDVTPRP | -0.0394
128 | RRIRVRPPRLPRPRPRPCGYPRP | 0.0222
129 | RRIRERPPRLPRPRPRPTHIPRP | -0.924
130 | RRIRVRPPRLPRPRPRPLYMPRP | -0.128
131 | RRIRARPPRLPRPRPRPNAIPRP | 0.201
132 | RRIRCRPPRLPRPRPRPVQWPRP | 0.116
133 | RRIRYRPPRLPRPRPRPIDIPRP | -0.0256
134 | RRIRNRPPRLPRPRPRPELNPRP | -0.0809
135 | RRIRQRPPRLPRPRPRPNIAPRP | -0.0856
136 | RRIRQRPPRLPRPRPRPWAFPRP | -0.000467
137 | RRIRMRPPRLPRPRPRPEVNPRP | 0.156
138 | RRIRVRPPRLPRPRPRPGHHPRP | 0.00137
139 | RRIRQRPPRLPRPRPRPCCMPRP | -0.42
140 | RRIRPRPPRLPRPRPRPEAKPRP | 1.03
141 | RRIRQRPPRLPRPRPRPPDAPRP | 0.228
142 | RRIRQRPPRLPRPRPRPAMTPRP | 0.00659
143 | RRIRERPPRLPRPRPRPIERPRP | 0.00274
144 | RRIRCRPPRLPRPRPRPVRQPRP | 0.126
145 | RRIRRRPPRLPRPRPRPHDWPRP | 0.312
146 | RRIRGRPPRLPRPRPRPASNPRP | 0.375
147 | RRIRQRPPRLPRPRPRPQYTPRP | -0.249
148 | RRIRWRPPRLPRPRPRPQWFPRP | -0.27
149 | RRIRYRPPRLPRPRPRPYIKPRP | -1.3
150 | RRIRWRPPRLPRPRPRPRYSPRP | -0.136
